The target of test [1] is T1, activated Protein C (APC) (human, UniProt P04070 43-197; P04070 212-461).
T1 construct: also called human plasma APC
In words: ratio of rate constants, APC over thrombin. The method, then: Standard errors are shown.
(§1) Preliminary second-order rate constants for the inhibition of thrombin and APC by random mutagenesis PCI variants were measured under pseudo first-order conditions using an excess of serpin over protease. Serpin and protease were incubated together for varying lengths of time and the residual activity determined by adding an excess of chromogenic substrate for the protease. Plots of residual protease activity over time gave the observed rate constant kobs. The second-order rate constant, k₂, is the slope of the plot of kobs versus serpin concentration (fitted using a linear regression model). WT and P2KP1′K are shown for comparison. The error shown is the standard error of the slope.

For test [2], the target named is T2, thrombin (UniProt P00734 328-622). In words: preliminary pseudo-first-order inhibition kinetics, residual chromogenic activity. The method, then:
as §1

Test [3] addresses T1, activated Protein C (APC). The test is described as above. The method, then:
as §1

The target of test [4] is T1, activated Protein C (APC). In words: ratio of rate constants, APC over fXa. The method, then: (§2) The inhibition of APC was reduced but still considerable, especially for the variants of α₁AT and the PCI variants in the presence of heparin. However, the specificity of PCI and α₁AT Pitts is not limited to thrombin and APC. […] In order not to inhibit coagulation, our variants also need to be specific for APC over fXa. We therefore also determined the rate constants of inhibition of PCI and α₁AT and their variants for fXa (Table 3). Rate constants were measured under pseudo-first-order conditions using an excess of serpin over protease. Serpin and protease were incubated together for varying lengths of time and the residual activity determined by adding an excess of chromogenic substrate (S2222) for the protease. Plots of residual protease activity over time gave the observed rate constant kobs. The second-order rate constant, k₂, is the slope of the plot of kobs versus serpin concentration (fitted using a linear regression model). Standard errors of the slope are shown (Table 3).

In test [5] the target is T1, activated Protein C (APC). In words: ratio of rate constants, APC over thrombin. The procedure:
(§3) Rate constants of thrombin and APC inhibition were measured under pseudo-first-order conditions using an excess of serpin over protease (Table 1). Serpin and protease were incubated together for varying lengths of time and the residual activity was determined by adding an excess of chromogenic substrate for the protease (S2238 for thrombin and […] for APC). Residual protease activity was then measured by following the absorbance at 405 nm. Plots of residual protease activity over time gave the observed rate constant kobs. The second-order rate constant, ₖ₂, is the slope of the plot of kobs versus serpin concentration (fitted using a linear regression model). Standard errors of the slope are shown.
The source holds these as a separate data set.

The target in test [6] is T1, activated Protein C (APC). In words: ratio of rate constants with heparin, APC over thrombin. The procedure:
(§4) PCI, unlike α₁AT, binds heparin and this binding considerably increases its inhibition of thrombin and APC (Pratt & Church, 1992). We therefore tested the inhibition of thrombin and APC by the P1′K and P2KP1′K PCI mutants in the presence of heparin to see if the swap in specificity seen in Table 1 would persist. Rate constants were measured under pseudo-first-order conditions using an excess of PCI over protease. PCI was preincubated with an equimolar concentration of unfractionated heparin for 30 min prior to the experiment. PCI:heparin and protease were incubated together for varying lengths of time and the residual activity after certain timepoints determined by adding an excess of chromogenic substrate for the protease mixed with polybrene to bind the heparin. Plots of residual protease activity over time gave the observed rate constant kobs. The second-order rate constant, k₂, is the slope of the plot of kobs versus serpin concentration (fitted using a linear regression model). Standard errors of the slope are shown. […] This might be due to the substrate pathway or complex dissociation. As for the inhibition in the absence of heparin, the P1′K and P2KP1′K mutants of PCI, unlike the WT protein were specific for APC over thrombin (Table 2).

In test [7] the target is T3, fXa (UniProt P00742 41-179; P00742 235-488).
T3 construct: also called factor Xa
T3 sequence (P00742 41-179 limits assumed, form in doubt, chain 1 of 2): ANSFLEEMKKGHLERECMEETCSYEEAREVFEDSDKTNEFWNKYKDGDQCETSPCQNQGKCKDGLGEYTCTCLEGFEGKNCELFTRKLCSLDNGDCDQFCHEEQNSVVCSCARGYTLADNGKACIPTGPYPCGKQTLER
T3 sequence (P00742 235-488 limits assumed, form in doubt, chain 2 of 2): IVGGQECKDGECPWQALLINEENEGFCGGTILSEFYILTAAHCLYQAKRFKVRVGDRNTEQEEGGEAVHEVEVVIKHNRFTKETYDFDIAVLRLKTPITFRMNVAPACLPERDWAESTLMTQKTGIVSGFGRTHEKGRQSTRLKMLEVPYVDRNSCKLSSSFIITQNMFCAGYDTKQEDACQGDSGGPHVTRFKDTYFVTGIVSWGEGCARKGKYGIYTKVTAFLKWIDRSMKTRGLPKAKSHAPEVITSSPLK
As to the kind of experiment: pseudo-first-order inhibition kinetics, residual chromogenic activity (S2222). The method, then:
as §2

In test [8] the target is T2, thrombin. In words: pseudo-first-order inhibition kinetics, residual chromogenic activity, no heparin. The procedure:
as §3

Test [9] concerns the target T1, activated Protein C (APC). The test is described as above. The procedure:
as §3

In test [10] the target is T2, thrombin. As to the kind of experiment: pseudo-first-order inhibition kinetics, residual chromogenic activity, with equimolar unfractionated heparin. The procedure: as §4
Test [11] has as its target T1, activated Protein C (APC). The description is as above. The procedure: as §4
Test [12] deals with T2, thrombin. As to the kind of experiment: pseudo-first-order inhibition kinetics, residual chromogenic activity. The procedure:
as §3

Test [13] addresses T1, activated Protein C (APC). The description is as above. The procedure:
as §3

Test [14] deals with T3, fXa. In words: single-concentration estimate (FIG. 15). The procedure: 1 μM serpin was incubated with 12.5 nM protease for different amounts of time. At the indicated timepoints, the reaction was stopped by addition of an excess of chromogenic substrate (S2238 for thrombin, S2222 for fXa). The residual enzyme activity was divided by the initial enzyme activity and the natural log of this value plotted against time. The slope of these plots is the observed rate constant, kobs. To obtain an estimate of the second-order rate constant k₂, kobs was divided by the serpin concentration. […] The mutants shown all have the Pitts (M358R, P1R) mutation.
Four additional mutants were identified from this additional screen. These all had the P1R mutation and in addition had either P2RP1′A, P2RP1′Q, P2WP1′I or P2WP1′H. To verify the specificity of these mutants, an initial experiment was performed, using only one concentration of serpin and testing its inhibition of thrombin and fXa. APC inhibition was not considered at this stage, because mutants were selected based on their low inhibition of thrombin and fXa. Serpin and protease were incubated for different times and at the indicated timepoints, the reaction was stopped by addition of an excess of chromogenic substrate. Residual protease activity was divided by the initial protease activity and the natural log of this value plotted against time (FIG. 15). The slope of this line divided by the serpin concentration gives an estimate of the second-order rate constant of inhibition.

Test [15] concerns the target T2, thrombin. In words: pseudo-first-order inhibition kinetics, residual chromogenic activity. The source holds these as a separate data set.
Test [16] concerns the target T1, activated Protein C (APC). Described as above. The source holds these as a separate data set.
Test [17] concerns the target T3, fXa. The description is as above.

Numbering of substitutions follows the chain as printed. Names may count otherwise.

T1 sequence (P04070 43-197, chain 1 of 2): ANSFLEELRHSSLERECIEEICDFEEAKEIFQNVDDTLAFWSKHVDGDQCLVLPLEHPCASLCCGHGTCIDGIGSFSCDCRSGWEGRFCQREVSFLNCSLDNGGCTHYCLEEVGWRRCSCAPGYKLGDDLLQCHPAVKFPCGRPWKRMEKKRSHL
T1 sequence (P04070 212-461, chain 2 of 2): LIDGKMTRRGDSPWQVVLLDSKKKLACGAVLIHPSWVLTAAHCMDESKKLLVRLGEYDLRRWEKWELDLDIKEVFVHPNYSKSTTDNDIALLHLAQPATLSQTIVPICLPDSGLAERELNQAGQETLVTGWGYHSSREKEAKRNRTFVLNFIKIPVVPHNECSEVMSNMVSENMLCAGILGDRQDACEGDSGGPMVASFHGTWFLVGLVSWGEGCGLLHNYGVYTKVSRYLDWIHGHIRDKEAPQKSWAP

B1: A22 4.H11 PCI (P4KP2RP1′H) (other)
chain: APSSRRDFTFDLYRALASAAPSQNIFFSPVSISMSLAMLSLGAGSSTKMQILEGLGLNLQKSSEKELHRGFQQLLQELNQPRDGFQLSLGNALFTDLVVDLQDTFVSAMKTLYLADTFPTNFRDSAGAMKQINDYVAKQTKGKIVDLLKNLDSNAVVIMVNYIFFKAKWETSFNHKGTQEQDFYVTSETVVRVPMMSREDQYHYLLDRNLSCRVVGVPYQGNATALFILPSEGKMQQVENGLSEKTLRKWLKMFKKRQLELYLPKFSIEGSYQLEKVLPSLGISNVFTSHADLSGISNHSNIQVSEMVHKAVVEVDESGTRAAAATGTIKTRRHARLNSQRLVFNRPFLMFIVDNNILFLGKVNRP
notes: As A22 WT PCI
As to B1, the “inhibition of APC/thrombin” value in [1] is 21.4 fold. The “second-order rate constant of inhibition” value turned out to be 21 M⁻¹ s⁻¹ with thrombin [2] and 450 M⁻¹ s⁻¹ in [3].

B2: A22 5.E12 PCI (P4HP2RP1′V) (other)
chain: B1 chain with K330H, H334V
notes: As A22 WT PCI
As to B2, the “inhibition of APC/thrombin” value in test [1] amounted to 11.3 fold. The “second-order rate constant of inhibition” value with thrombin [2] stood at 23 M⁻¹ s⁻¹; in test [3] it was 260 M⁻¹ s⁻¹.

B3: A22 P1′K PCI (other)
chain: B1 chain with K330F, R332F, H334K
notes: As A22 WT PCI
Take B3: the “fold inhibition APC/fXa” value in test [4] is 1.7 fold. The “fold inhibition APC/thrombin” value in test [5] amounted to 40 fold; in test [6], 18900 fold. The “second-order rate constant of inhibition” value stood at 520 M⁻¹ s⁻¹ with fXa [7]; 22 M⁻¹ s⁻¹ in the test with thrombin [8]; 880 M⁻¹ s⁻¹ in [9]; 17 M⁻¹ s⁻¹ with thrombin [10]; 322000 M⁻¹ s⁻¹ in test [11].

B4: A22 D8 PCI (P4QP2RP1′N) (other)
chain: B1 chain with K330Q, H334N
notes: As A22 WT PCI
Turning to B4, in test [1], the “inhibition of APC/thrombin” value came out at 11.9 fold. In addition, the results for the “second-order rate constant of inhibition” value (in the test with thrombin [2]; in test [3]) were 84 M⁻¹ s⁻¹ and 1000 M⁻¹ s⁻¹, respectively.

B5: FL α1AT Pitts C232S P2K (other)
chain: SDPQGDAAQKTDTSHHDQDHPTFNKITPNLAEFAFSLYRQLAHQSNSTNIFFSPVSIATAFAMLSLGTKADTHDEILEGLNFNLTEIPEAQIHEGFQELLRTLNQPDSQLQLTTGNGLFLSEGLKLVDKFLEDVKKLYHSEAFTVNFGDTEEAKKQINDYVEKGTQGKIVDLVKELDRDTVFALVNYIFFKGKWERPFEVKDTEEEDFHVDQVTTVKVPMMKRLGMFNIQHSKKLSSWVLLMKYLGNATAIFFLPDEGKLQHLENELTHDIITKFLENEDRRSASLHLPKLSITGTYDLKSVLGQLGITKVFSNGADLSGVTEEAPLKLSKAVHKAVLTIDEKGTEAAGAMFLEAIKRSIPPEVKFNKPFVFLMIEQNTKSPLFMGKVVNPTQK
notes: E. coli, SUMO tag removed; also called P2K α1AT Pitts; P2.G11
As for B5, the “fold inhibition APC/fXa” value in test [4] was determined as 16.5 fold. Besides, the “fold inhibition APC/thrombin” value in test [5] was 1270 fold. For the same molecule, the “second-order rate constant of inhibition” value in the test with thrombin [12] is 51 M⁻¹ s⁻¹; in test [13], 64800 M⁻¹ s⁻¹; in the test with fXa [7] it was 3930 M⁻¹ s⁻¹.

B6: α1AT Pitts (P1R) mutant P2WP1′H (other)
chain: B5 chain with K357W, S359H
B6: the “fold reduction of the second-order rate constant compared to FL α1AT Pitts C232S” value (“fold reduction” below) with fXa [14] was about 10 fold.

B7: FL α1AT Pitts C232S P1′K (other)
chain: B5 chain with K357P, S359K
notes: E. coli, SUMO tag removed; also called P1′K α1AT Pitts; P1′.F9
B7: the “fold inhibition APC/fXa” value in [4] was determined as 19.6 fold. Besides, in test [5], the “fold inhibition APC/thrombin” value is 563 fold. The results for the “second-order rate constant of inhibition” value (with thrombin [12]; in test [13]; with fXa [7]) were 170 M⁻¹ s⁻¹, 95700 M⁻¹ s⁻¹ and 4890 M⁻¹ s⁻¹, respectively.

B8: FL α1AT Pitts C232S P2KP1′Q (other)
chain: B5 chain with S359Q
Turning to B8, the “second-order rate constant of inhibition” value with thrombin [15] was found to be 2.9 M⁻¹ s⁻¹; in test [16] it was 9000 M⁻¹ s⁻¹; in the test with fXa [17] it was 170 M⁻¹ s⁻¹.

B9: FL α1AT Pitts C232S P2RP1′Q (other)
chain: B5 chain with K357R, S359Q
In the case of B9, the “second-order rate constant of inhibition” value with thrombin [15] was 5.4 M⁻¹ s⁻¹; in [16] it was 8300 M⁻¹ s⁻¹; with fXa [17] it was 130 M⁻¹ s⁻¹.

B10: α1AT Pitts (P1R) mutant P2WP1′I (other)
chain: B5 chain with K357W, S359I
For B10, the “fold reduction” value with fXa [14] was about 10 fold.

B11: α1AT Pitts (P1R) mutant P2RP1′A (other)
chain: B5 chain with K357R, S359A
notes: also called 3.E5
As to B11, the “fold reduction” value with fXa [14] is about 10 fold.

The values are drawn from US20160311887A1 (CAMBRIDGE ENTERPRISE, published 2016).
